Positions count from the first letter of the chain named. Numbers in names are those of the source.

This note sets out measurements from patent US20240270846A1 (published 2024).

Assay [1] addresses T1, CD3 epsilon homodimer protein (UniProt P07766 23-126).
T1 construct: Immobilized on Sensor chip CM4 by amine coupling; construct not described; also called CD3 (CD3 epsilon)
Description: SPR Biacore T200, CD3 epsilon homodimer on CM4 chip, antibody as analyte.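 Note: Amine-coupled CD3 epsilon homodimer, run at 25 °C in HBS-EP+ buffer, ratio is bound amount of each single-residue H chain variant over that of the parent antibody.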 In general terms: In SPR one partner is held on a chip, and binding of the other changes the refractive index at the surface.
T1 sequence (P07766 23-126): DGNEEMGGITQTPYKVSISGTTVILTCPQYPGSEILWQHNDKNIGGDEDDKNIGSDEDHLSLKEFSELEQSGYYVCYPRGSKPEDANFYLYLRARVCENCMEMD

In assay [2] the target is T2, CD3 epsilon homodimer protein (UniProt P07766 23-126).
T2 construct: Construct of the homodimer protein is not described; also called CD3 (CD3 epsilon)
Briefly: SPR (Biacore T200), CD3 epsilon homodimer on CM4 chip, one-arm antibody as analyte; ratio to unaltered CE115HA000.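 Note: surface plasmon resonance run at 25 °C with HBS-EP+ as running buffer, CD3 epsilon homodimer attached by amine coupling, antibody passed over as analyte.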
T2 sequence (P07766 23-126): as above

B1: CE115HA000 Y100Q one-arm antibody (antibody, human IgG1, kappa, L234A L235A, N297A, name in Kabat numbering)
heavy: QVQLVESGGGVVQPGRSLRLSCAASGFTFSNAWMHWVRQAPGKGLEWVAQIKAKSNNYATYYAESVKGRFTISRDDSKNSLYLQMNSLKTEDTAVYYCRYVHYGAQYGVDAWGQGTTVTVSSASTKGPSVFPLAPSSKSTSGGTAALGCLVKDYFPEPVTVSWNSGALTSGVHTFPAVLQSSGLYSLSSVVTVPSSSLGTQTYICNVNHKPSNTKVDKKVEPKSCDKTHTCPPCPAPEAAGGPSVFLFPPKPKDTLMISRTPEVTCVVVDVSHEDPEVKFNWYVDGVEVHNAKTKPREEQYASTYRVVSVLTVLHQDWLNGKEYKCKVSNKALPAPIEKTISKAKGQPREPQVYTLPPSRCELTKNQVSLSCAVKGFYPSDIAVEWESNGQPENNYKTTPPVLDSDGSFFLVSKLTVDKSRWQQGNVFSCSVMHEALHNHYTQKSLSLSPDYKDDDDK
chain: EPKSSDKTHTCPPCPAPELLGGPSVFLFPPKPKDTLMISRTPEVTCVVVDVSHEDPEVKFNWYVDGVEVHNAKTKPREEQYNSTYRVVSVLTVLHQDWLNGKEYKCKVSNKALPAPIEKTISKAKGQPREPQVCTLPPSRDELTKNQVSLWCLVKGFYPSDIAVEWESNGQPENNYKTTPPVLDSDGSFFLYSKLTVDKSRWQQGNVFSCSVMHEALHNRYTQKSLSLSP
light: DIVMTQSPLSLPVTPGEPASISCRSSQSLVHSNRNTYLHWYQQKPGQAPRLLIYKVSNRFSGVPDRFSGSGSGTDFTLKISRVEAEDVGVYYCGQGTQVPYTFGQGTKLEIKRTVAAPSVFIFPPSDEQLKSGTASVVCLLNNFYPREAKVQWKVDNALQSGNSQESVTEQDSKDSTYSLSSTLTLSKADYEKHKVYACEVTHQGLSSPVTKSFNRGEC
notes: one-arm antibody (one Fab)
B1: the “ratio of amounts bound (Y/X vs CE115HA000)” value (shortened to “ratio of amounts bound”) in assay [1] came out at 0.8.

B2: CE115HA000 D101A one-arm antibody (antibody, human IgG1, kappa, L234A L235A, N297A, name in Kabat numbering)
heavy: B1 heavy with Q106Y, D110A
chain: B1 chain
light: B1 light
notes: one-arm antibody
Consider B2, for which the “KD ratio (KD value of CE115HA000/KD value of the altered form)” value (shortened to “KD ratio”) in assay [2] was 0.86.

B3: CE115HA000 A99Y one-arm antibody (antibody, human IgG1, kappa, L234A L235A, N297A, name in Kabat numbering)
heavy: B1 heavy with A105Y, Q106Y
chain: B1 chain
light: B1 light
notes: one-arm antibody
Consider B3, for which the “KD ratio” value in assay [2] was 1.25.

B4: CE115HA000 A99D one-arm antibody (antibody, human IgG1, kappa, L234A L235A, N297A, name in Kabat numbering)
heavy: B1 heavy with A105D, Q106Y
chain: B1 chain
light: B1 light
notes: one-arm antibody
Take B4: the “KD ratio” value in assay [2] is 1.03.

B5: CE115HA000 Y100S one-arm antibody (antibody, human IgG1, kappa, L234A L235A, N297A, name in Kabat numbering)
heavy: B1 heavy with Q106S
chain: B1 chain
light: B1 light
notes: one-arm antibody (one Fab)
With B5, in assay [1], the “ratio of amounts bound” value worked out at 0.81.

B6: CE115HA000 A99F one-arm antibody (antibody, human IgG1, kappa, L234A L235A, N297A, name in Kabat numbering)
heavy: B1 heavy with A105F, Q106Y
chain: B1 chain
light: B1 light
notes: one-arm antibody
In the case of B6, in assay [2], the “KD ratio” value was 1.15.

B7: CE115HA000 Y100aQ one-arm antibody (antibody, human IgG1, kappa, L234A L235A, N297A, name in Kabat numbering)
heavy: B1 heavy with Q106Y, Y107Q
chain: B1 chain
light: B1 light
notes: one-arm antibody (one Fab)
In the case of B7, the “ratio of amounts bound” value in assay [1] is 0.56.

B8: CE115HA000 Y100aL one-arm antibody (antibody, human IgG1, kappa, L234A L235A, N297A, name in Kabat numbering)
heavy: B1 heavy with Q106Y, Y107L
chain: B1 chain
light: B1 light
notes: one-arm antibody (one Fab)
Turning to B8, the “ratio of amounts bound” value in assay [1] turned out to be 0.48.

B9: CE115HA000 A99T one-arm antibody (antibody, human IgG1, kappa, L234A L235A, N297A, name in Kabat numbering)
heavy: B1 heavy with A105T, Q106Y
chain: B1 chain
light: B1 light
notes: one-arm antibody
As for B9, the “KD ratio” value in assay [2] was determined as 0.93.

B10: CE115HA000 Y100V one-arm antibody (antibody, human IgG1, kappa, L234A L235A, N297A, name in Kabat numbering)
heavy: B1 heavy with Q106V
chain: B1 chain
light: B1 light
notes: one-arm antibody (one Fab)
In the case of B10, in assay [1], the “ratio of amounts bound” value came out at 0.6.

B11: CE115HA000 A99Q one-arm antibody (antibody, human IgG1, kappa, L234A L235A, N297A, name in Kabat numbering)
heavy: B1 heavy with A105Q, Q106Y
chain: B1 chain
light: B1 light
notes: one-arm antibody
For B11, the “KD ratio” value in assay [2] was 0.85.

B12: CE115HA000 Y100W one-arm antibody (antibody, human IgG1, kappa, L234A L235A, N297A, name in Kabat numbering)
heavy: B1 heavy with Q106W
chain: B1 chain
light: B1 light
notes: one-arm antibody (one Fab)
With B12, in assay [1], the “ratio of amounts bound” value worked out at 1.03.

B13: CE115HA000 Y100aD one-arm antibody (antibody, human IgG1, kappa, L234A L235A, N297A, name in Kabat numbering)
heavy: B1 heavy with Q106Y, Y107D
chain: B1 chain
light: B1 light
notes: one-arm antibody (one Fab)
Regarding B13, the “ratio of amounts bound” value in assay [1] was found to be 0.31.

B14: CE115HA000 A99K one-arm antibody (antibody, human IgG1, kappa, L234A L235A, N297A, name in Kabat numbering)
heavy: B1 heavy with A105K, Q106Y
chain: B1 chain
light: B1 light
notes: one-arm antibody
Consider B14, for which the “KD ratio” value in assay [2] stood at 1.4.

B15: CE115HA000 Y100aF one-arm antibody (antibody, human IgG1, kappa, L234A L235A, N297A, name in Kabat numbering)
heavy: B1 heavy with Q106Y, Y107F
chain: B1 chain
light: B1 light
notes: one-arm antibody (one Fab)
Regarding B15, in assay [1], the “ratio of amounts bound” value came out at 0.87.

B16: CE115HA000 A99S one-arm antibody (antibody, human IgG1, kappa, L234A L235A, N297A, name in Kabat numbering)
heavy: B1 heavy with A105S, Q106Y
chain: B1 chain
light: B1 light
notes: one-arm antibody
For the molecule B16, in assay [2], the “KD ratio” value worked out at 0.76.

B17: CE115HA000 Y100aK one-arm antibody (antibody, human IgG1, kappa, L234A L235A, N297A, name in Kabat numbering)
heavy: B1 heavy with Q106Y, Y107K
chain: B1 chain
light: B1 light
notes: one-arm antibody (one Fab)
Regarding B17, the “ratio of amounts bound” value in assay [1] amounted to 0.9.

B18: CE115HA000 Y100aS one-arm antibody (antibody, human IgG1, kappa, L234A L235A, N297A, name in Kabat numbering)
heavy: B1 heavy with Q106Y, Y107S
chain: B1 chain
light: B1 light
notes: one-arm antibody (one Fab)
B18: the “ratio of amounts bound” value in assay [1] turned out to be 0.64.

B19: CE115HA000 Y100aA one-arm antibody (antibody, human IgG1, kappa, L234A L235A, N297A, name in Kabat numbering)
heavy: B1 heavy with Q106Y, Y107A
chain: B1 chain
light: B1 light
notes: one-arm antibody (one Fab)
Take B19: the “ratio of amounts bound” value in assay [1] amounted to 0.62.

B20: CE115HA000 A99L one-arm antibody (antibody, human IgG1, kappa, L234A L235A, N297A, name in Kabat numbering)
heavy: B1 heavy with A105L, Q106Y
chain: B1 chain
light: B1 light
notes: one-arm antibody
Take B20: the “KD ratio” value in assay [2] was determined as 1.

B21: CE115HA000 Y100aG one-arm antibody (antibody, human IgG1, kappa, L234A L235A, N297A, name in Kabat numbering)
heavy: B1 heavy with Q106Y, Y107G
chain: B1 chain
light: B1 light
notes: one-arm antibody (one Fab)
Take B21: in assay [1], the “ratio of amounts bound” value is 1.23.
